Data on five molecules can be found in patent US20070071764A1.

Assay in all cases: cell-based or functional assay
For assay [1], the target named is human Kv1.1 channel (human) (UniProt Q09470).
Assay [2] concerns the target human Kv1.3 channel (human) (UniProt P22001).
Assay [3] has the same target. This is another data set of the same source.

Like-named read-outs stand apart in the source and are kept apart here. Where no end group is shown, it is not given here.

Chain of human Kv1.3 channel (human) (P22001 whole entry): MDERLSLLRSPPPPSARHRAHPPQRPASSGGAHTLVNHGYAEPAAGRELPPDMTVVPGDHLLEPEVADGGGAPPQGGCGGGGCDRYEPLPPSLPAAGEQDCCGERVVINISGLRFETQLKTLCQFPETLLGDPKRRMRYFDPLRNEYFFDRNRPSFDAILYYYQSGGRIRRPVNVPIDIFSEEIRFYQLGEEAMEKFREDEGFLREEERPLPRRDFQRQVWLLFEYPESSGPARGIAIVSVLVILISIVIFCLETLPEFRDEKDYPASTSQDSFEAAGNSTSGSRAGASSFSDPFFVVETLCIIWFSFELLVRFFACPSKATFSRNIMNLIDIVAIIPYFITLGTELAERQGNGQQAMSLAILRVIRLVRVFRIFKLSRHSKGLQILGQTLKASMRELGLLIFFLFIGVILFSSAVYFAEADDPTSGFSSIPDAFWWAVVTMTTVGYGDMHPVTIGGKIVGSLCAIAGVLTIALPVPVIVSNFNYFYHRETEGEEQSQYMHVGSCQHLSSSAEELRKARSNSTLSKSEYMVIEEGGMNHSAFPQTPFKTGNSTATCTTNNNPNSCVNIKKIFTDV
Chain of human Kv1.1 channel (human) (Q09470 whole entry): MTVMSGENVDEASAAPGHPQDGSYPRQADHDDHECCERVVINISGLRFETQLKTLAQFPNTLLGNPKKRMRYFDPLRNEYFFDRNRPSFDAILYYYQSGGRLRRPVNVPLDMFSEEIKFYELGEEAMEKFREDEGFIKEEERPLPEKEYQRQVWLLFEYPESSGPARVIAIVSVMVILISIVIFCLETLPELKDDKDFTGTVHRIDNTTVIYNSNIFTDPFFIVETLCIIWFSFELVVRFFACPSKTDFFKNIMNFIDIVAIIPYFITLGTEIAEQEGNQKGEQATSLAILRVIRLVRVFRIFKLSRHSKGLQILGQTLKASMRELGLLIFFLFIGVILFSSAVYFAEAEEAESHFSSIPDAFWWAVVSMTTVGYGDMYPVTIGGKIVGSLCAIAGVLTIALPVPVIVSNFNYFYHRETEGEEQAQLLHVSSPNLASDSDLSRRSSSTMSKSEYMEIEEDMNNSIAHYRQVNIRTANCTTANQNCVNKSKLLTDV

In assay [1], “Fc-L10-OSK1 (CHO-derived peptibody) (Fc fusion)” gave a hKv1.1: IC50 (electrophysiology, HEK293) of 41600 pM.
With PEG-OSK1 (peptide), the peak IC50 (whole-cell patch clamp, HEK293 stably expressing human Kv1.3) in assay [2] amounted to 1280 pM.
Consider Fc-L25-ShK[2-35] peptibody (Fc fusion), for which, in assay [2], the IC50, whole cell patch clamp electrophysiology on HEK293/Kv1.3 cells came out at 150 pM.
Take Synthetic OSK1 toxin peptide: in assay [2], the hKv1.3: IC50 (whole-cell patch clamp, HEK293) was 39 pM and the selectivity ratio hKv1.1/hKv1.3 (IC50 on hKv1.1 over IC50 on hKv1.3) came to 4. The same molecule yielded a hKv1.1: IC50 (electrophysiology, HEK293) in assay [1] of 160 pM.

B1: 20K PEG-ShK[1-35] (peptide)
peptide: RSCIDTIPKSRCTAFQCKHSMKYRLSFCRKTCGTC
modifications: not fully specified (N-terminus); ends and bridges not checked
On to B1, for which, in assay [3], the peak IC50 (whole-cell patch clamp, HEK293 stably expressing human Kv1.3) was 169 pM.
